Km and kcat/Km data for one protein are collected here from paper PMC9765439, “Systems-Wide Dissection of Organic Acid Assimilation in Pseudomonas aeruginosa Reveals a Novel Path To Underground Metabolism” (mBio, 2022).

Common to all, as to experiment: purified protein
Common to all, as to type: biochemical, Pseudomonas aeruginosa

Substrate in series [1]: CCC(=O)SCCNC(=O)CCNC(=O)[C@H](O)C(C)(C)COP(=O)(O)OP(=O)(O)OC[C@H]1O[C@@H](n2cnc3c(N)ncnc32)[C@H](O)[C@@H]1OP(=O)(O)O
Particulars: 0.5 mM oxaloacetate, 50 mM HEPES pH 7.5, 0.1 M KCl, 0.54 M glycerol, 37 °C.

Substrate in series [2]: O=C(O)CC(=O)C(=O)O
Particulars: 0.5 mM propionyl-CoA, 50 mM HEPES pH 7.5, 0.1 M KCl, 0.54 M glycerol, 37 °C.

Substrate in series [3]: CC(=O)SCCNC(=O)CCNC(=O)[C@H](O)C(C)(C)COP(=O)(O)OP(=O)(O)OC[C@H]1O[C@@H](n2cnc3c(N)ncnc32)[C@H](O)[C@@H]1OP(=O)(O)O
Particulars: 0.5 mM oxaloacetate, 50 mM HEPES pH 7.5, 0.1 M KCl, 0.54 M glycerol, 37 °C.

B1: PrpCPa (2-methylcitrate synthase, 2-MCS) (Pseudomonas aeruginosa PAO1) (protein)
chain: MAEAKVLSGAGLRGQVAGQTALSTVGQEGAGLTYRGYDVRDLAAAAIFEEVAYLLLYGELPNKQQLDAYLKKLQGQRDLPQALKEVLERIPKDAHPMDVMRTGASVLGTLEPELSFDQQRDVADRLLAAFPAIMTYWYRFTHEGQRIDCNSDEPTIGGHFLALLHGKKPSELHVKVMNVSLILYAEHEFNASTFTARVCASTLSDLYSCVTGAIGSLRGPLHGGANEAAMELIERFSSPQEATAELLKMLERKDKIMGFGHAIYKDSDPRNEVIKGWSKQLADEVGDKVLFAVSEAIDKTMWEQKKLFPNADFYHASAYHFMGIPTKLFTPIFVCSRTSGWTAHVFEQRANNRIIRPSAEYTGVEQRAFVPLEQR
notes: pET-19m, N-terminal TEV-cleavable His6 tag, cut; E. coli host; homodimer
Turning to B1, the Km (in general, the concentration of substrate that gives half-maximal velocity) was found to be 45 µM in “purified protein [1]”, 15.65 µM in the series “purified protein [2]” and 28 µM in the series “purified protein [3]”. The kcat/Km (as a rule, the second-order rate constant that governs catalysis at low substrate concentration) in “purified protein [2]” is 228000 M⁻¹ s⁻¹; in the series “purified protein [3]”, 114000 M⁻¹ s⁻¹.
